Measured values from the RNAGym collection of RNA variant scans (doi:10.1093/nar/gkz1192).

B1: CPEB3 Ribozyme (parent)
chain: UAACAGGGGGCCACAGCAGAAGCGUUCACGUCGCAGCCCCUGUCAGAUUCUGGUGAAUCUGCGAAUUCUGCUGUAUAUCUC

Variants of: B1
Test: self-cleavage, relative activity (ratio to wild type); higher = more cleavage; in vitro, sequencing
Procedure, shortened: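 For each CPEB3 ribozyme variant, relative activity is its cleaved/total read fraction divided by the unmutated ribozyme's. Barcoded error-prone PCR libraries were transcribed by T7 RNA polymerase (5 hours, 37°C) and held in DNase I for 15 min before an EDTA stop, with cleavage occurring throughout. Template-switching reverse transcription and Illumina sequencing were used to read the RNAs. A 5-read minimum applied, and results are the mean of three batches.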

Variant | self-cleavage
UAACAGGAGGCCACAGCAGAAGCGUUCACGUCGCAGCCCCUGUCAGAUUCUGGUGAAUCUGCGAAUUCUGCUGAAUAUCUC [G8A U74A] | 0.25
UAACAGGAGGCCACAGCAGAAGCGUUCACGUCGCAGCCCCUGUCAGAUUCUGGUGAAUCUGCGAAUUCUGCUGCAUAUCUC [G8A U74C] | 0.35
UAACAGGAGGCCACAGCAGAAGCGUUCACGUCGCAGCCCCUGUCAGAUACUGGUGAAUCUGCGAAUUCUGCUGUAUAUCUC [G8A U49A] | 0.25
UAACAGGAGGCCACAGCAGAAGCGUUCACGUCGCAGCCCCUGUCAGAUCCUGGUGAAUCUGCGAAUUCUGCUGUAUAUCUC [G8A U49C] | 0.2
UAACAGGAGGCCACAGCAGAAGCGUUCACGUCGCAGCCCCUGUCAGAUUCUAGUGAAUCUGCGAAUUCUGCUGUAUAUCUC [G8A G52A] | 0.3
UAACAGGAGGCCACAGCAGAAGCGUUCACGUCGCAGCCCCUGUCAGAUUCUGGUGAAUCUGCCAAUUCUGCUGUAUAUCUC [G8A G63C] | 0.19
UAACAGGAGGCCACAGCAGAAGCGUUCACGUCGCAGCCCCUGUCAGAUUCUGGUGAAUCUGCGAACUCUGCUGUAUAUCUC [G8A U66C] | 0.12
UAACAGGAGGCCACAGCAGAAACGUUCACGUCGCAGCCCCUGUCAGAUUCUGGUGAAUCUGCGAAUUCUGCUGUAUAUCUC [G8A G22A] | 0.27
UAACAGGAGGCCACAGCAGAAGCGUUCACGGCGCAGCCCCUGUCAGAUUCUGGUGAAUCUGCGAAUUCUGCUGUAUAUCUC [G8A U31G] | 0.41
UAACAGGAGGCCACAGCAGAAGCGUUCACGACGCAGCCCCUGUCAGAUUCUGGUGAAUCUGCGAAUUCUGCUGUAUAUCUC [G8A U31A] | 0.18
UAACAGGAGGCCACAGCAGAAGCGUUCACGCCGCAGCCCCUGUCAGAUUCUGGUGAAUCUGCGAAUUCUGCUGUAUAUCUC [G8A U31C] | 0.24
UAACAGGAGGCCACAGCAGAAGCGUUCACGUCGCAGCCCCUGCCAGAUUCUGGUGAAUCUGCGAAUUCUGCUGUAUAUCUC [G8A U43C] | 0.14
UAACAGGAGGCCACAGCAGAAGCGUUCACGUCGCAGCCCCUGACAGAUUCUGGUGAAUCUGCGAAUUCUGCUGUAUAUCUC [G8A U43A] | 0.27
UAACAGGCGGCCACAGCAGAAGCGUUCACGUCGCAGCCCCUGUCAGAUUCUGGUGGAUCUGCGAAUUCUGCUGUAUAUCUC [G8C A56G] | 0.17
UAACAGGAGGCCACAGCAGAAGCGUUCACGUCGCAGCCCCUGUCAGAUUCUGGUAAAUCUGCGAAUUCUGCUGUAUAUCUC [G8A G55A] | 0.06
UAACAGGAGGCCACAGCAGAAGCGUUCACGUCGCAGCCCCUGUCAGACUCUGGUGAAUCUGCGAAUUCUGCUGUAUAUCUC [G8A U48C] | 0.15
UAACAGGAGGCCACAGCAGAAGCGUUCACGUCGCAGCCCCUGUCAGAGUCUGGUGAAUCUGCGAAUUCUGCUGUAUAUCUC [G8A U48G] | 0.37
UAACAGGAGGCCACAGCAGAAGCGUUCACGUCGCAGCCCCUGUCAGAAUCUGGUGAAUCUGCGAAUUCUGCUGUAUAUCUC [G8A U48A] | 0.27
UAACAGGCGGCCACAGCAGAAGCGUUCACGUCGCAGCCCCUGUCAGAUUCUGGUGAAUCUGCGAAUUCUGCUGUAUAUCUC [G8C] | 0.27
UAACAGGCGGCCACAGCAGAAGCGUUCACGUCGCAGCCCCUGUCAGAUUCUGGUGAAUCUGCGUAUUCUGCUGUAUAUCUC [G8C A64U] | 0.22
UAACAGGAGGCCACAGCAGAAGCGUCCACGUCGCAGCCCCUGUCAGAUUCUGGUGAAUCUGCGAAUUCUGCUGUAUAUCUC [G8A U26C] | 0.13
UAACAGGAGGCCACAGCAGAAGCGUACACGUCGCAGCCCCUGUCAGAUUCUGGUGAAUCUGCGAAUUCUGCUGUAUAUCUC [G8A U26A] | 0.19
UAACAGGAGGCCACAGCAGAAGCGUUCACUUCGCAGCCCCUGUCAGAUUCUGGUGAAUCUGCGAAUUCUGCUGUAUAUCUC [G8A G30U] | 0.16

Variant | self-cleavage
UAACAGGAGGCCACAGCAGAAGCGUUCACAUCGCAGCCCCUGUCAGAUUCUGGUGAAUCUGCGAAUUCUGCUGUAUAUCUC [G8A G30A] | 0.4
UAACAGGAGGCCACAGCAGAAGCGUUCACGUCUCAGCCCCUGUCAGAUUCUGGUGAAUCUGCGAAUUCUGCUGUAUAUCUC [G8A G33U] | 0.07
UAACAGGCGGCCACAGCAGAAGCGUUAACGUCGCAGCCCCUGUCAGAUUCUGGUGAAUCUGCGAAUUCUGCUGUAUAUCUC [G8C C27A] | 0.19
UAACAGGAGGCCACAGCAGAAGCGUUCACGUCGCAGCCCCUGUCAGAUUCUGGUGAAUCUGCGAAUUCUGCUAUAUAUCUC [G8A G73A] | 0.18
UAACAGGAGGCCACAGCAGAAGCGUUCACGUCGCAGCCCCUGUCAGAUUCUGGUGAACCUGCGAAUUCUGCUGUAUAUCUC [G8A U58C] | 0.2
UAACAGGCGGCCACAGCAGAAGAGUUCACGUCGCAGCCCCUGUCAGAUUCUGGUGAAUCUGCGAAUUCUGCUGUAUAUCUC [G8C C23A] | 0.3
UAACAGGAGGCCACAGCAGAAGCGUUCACGUCGCAGCCCCUGUCAGAUUCUGGUGAAUCUGCGAAUUCUGCUGUAAAUCUC [G8A U76A] | 0.49
UAACAGGAGGCCACAGCAGAAGCGUUCACGUCGCAGCCCCUGUCAGAUUCUGGUGAAUCUGCGAAUACUGCUGUAUAUCUC [G8A U67A] | 0.26
UAACAGGAGGCCACAGCAGAAGCGUUCACGUCGCAGCCCCUGUCAGAUUCUGGUGAAUCUGCGAAUCCUGCUGUAUAUCUC [G8A U67C] | 0.22
UAACAGGAGGCCACAGCAGAAGCGUUCACGUCGCAGCCCCUGUCAGAUUCUGGUGAAUCUGCGAAUGCUGCUGUAUAUCUC [G8A U67G] | 0.48
UAACAGGAGGCCACAGCAGAAGCGUUCACGUCGCAGCCCCUGUCAGAUUCAGGUGAAUCUGCGAAUUCUGCUGUAUAUCUC [G8A U51A] | 0.24
UAACAGGAGGCCACAGCAGAAGCGUUCACGUCGCAGCCCCUGUCAGAUUCCGGUGAAUCUGCGAAUUCUGCUGUAUAUCUC [G8A U51C] | 0.21
UAACAGGAGGCCACAGCAGAAGCGUUCACGUCGCAGCCCCUGUCAGAUUCGGGUGAAUCUGCGAAUUCUGCUGUAUAUCUC [G8A U51G] | 0.09
UAACAGGAGGCCACAGCAGAAGCAUUCACGUCGCAGCCCCUGUCAGAUUCUGGUGAAUCUGCGAAUUCUGCUGUAUAUCUC [G8A G24A] | 0.08
UAACAGGCGGCCACAGCAGAAGCGUUCGCGUCGCAGCCCCUGUCAGAUUCUGGUGAAUCUGCGAAUUCUGCUGUAUAUCUC [G8C A28G] | 0.22
UAACAGGAGGCCACAGCAGAAGCGUUCACGUCGCAGCCCCUGUCAGAUUCUGGUGAAUCUGCGAAUUCUGCUGUAUACCUC [G8A U78C] | 0.35
UAACAGGAGGCCACAGCAGAAGCGUUCACGUCGCAGCCCCUGUCAGAUUCUGGUGAAUCUGCGAAUUCUGCUGUAUAACUC [G8A U78A] | 0.37
UAACAGGAGGCCACAGCAGAAGCGUUCACGUCGCAGCCCCUGUCAGAUUCUGGUGAAUCUGCGAAUUCUGCUGUAUAUCCC [G8A U80C] | 0.19
UAACAGGAGGCCACAGCAGAAGCGUUCACGUCGCAGCCCCUGUCAGAUUCUGGUGAAUCUGCGAAUUCUGCUGUAUAUCAC [G8A U80A] | 0.29
UAACAGGCGGCCUCAGCAGAAGCGUUCACGUCGCAGCCCCUGUCAGAUUCUGGUGAAUCUGCGAAUUCUGCUGUAUAUCUC [G8C A13U] | 0.16
UAACAGGAGGCCACAGCAGAAGCGUUCACGUCGCAGCCCCUAUCAGAUUCUGGUGAAUCUGCGAAUUCUGCUGUAUAUCUC [G8A G42A] | 0.1
UAACAGGAGGCCACAGCAGAAGCGUUCACGUCGCAGCCCCUGUCAGAUUCUGGUGAAUCUGCGAAUUCUGCUGUAUAUAUC [G8A C79A] | 0.18
UAACAGGAGGCCACAGCAGAAGCGUUCACGUCGCAGCCCCUGUCAGAUUCUGGUGAAUCUGCGAAUUCUGCCGUAUAUCUC [G8A U72C] | 0.26

Variant | self-cleavage
UAACAGGAGGCCACAGCAGAAGCGUUCACGUCGCAGCCCCUGUCAGAUUCUGGUGAAUCUGCGAAUUCUGCGGUAUAUCUC [G8A U72G] | 0.12
UAACAGGAGGCCACAGCAGAAGCGUUCACGUCGCAGCCCCUGUCAGAUUCUGGUGAAUCUGCGAAUUCUGCAGUAUAUCUC [G8A U72A] | 0.07
UAACAGGCGGCCACAGCAGAAGCGUUCACGUUGCAGCCCCUGUCAGAUUCUGGUGAAUCUGCGAAUUCUGCUGUAUAUCUC [G8C C32U] | 0.2
UAACAGGAGGCCACAGCAGAAGCGCUCACGUCGCAGCCCCUGUCAGAUUCUGGUGAAUCUGCGAAUUCUGCUGUAUAUCUC [G8A U25C] | 0.26
UAACAGGAGGCCACAGCAGAAGCGAUCACGUCGCAGCCCCUGUCAGAUUCUGGUGAAUCUGCGAAUUCUGCUGUAUAUCUC [G8A U25A] | 0.05
UAACAGGAGGCCACAGCAGAAGCGUUCACGUCGCAGCCCCUGUCAGAUUCUGGUGAAUCUGCGAAUUCUACUGUAUAUCUC [G8A G70A] | 0.05
UAACAGGAGGCCACAGCAGAAGCGUUCACGUCGCAGCCCCUGUCAGAUUCUGGUGAAUCCGCGAAUUCUGCUGUAUAUCUC [G8A U60C] | 0.23
UAACAGGAGGCCACAGCAGAAGCGUUCACGUCGCAGCCCCUGUCAGAUUCUGGUGAAUCAGCGAAUUCUGCUGUAUAUCUC [G8A U60A] | 0.18
UAACAGGCGGCCACAGCUGAAGCGUUCACGUCGCAGCCCCUGUCAGAUUCUGGUGAAUCUGCGAAUUCUGCUGUAUAUCUC [G8C A18U] | 0.23
UAACAGGCGGCCACAGCGGAAGCGUUCACGUCGCAGCCCCUGUCAGAUUCUGGUGAAUCUGCGAAUUCUGCUGUAUAUCUC [G8C A18G] | 0.27
UAACAGGCGGCCACAGCAGAAGCGUUCACGUCGCAGCCCCUGUCAGAUUCUGGUGAAUCUGCGAGUUCUGCUGUAUAUCUC [G8C A65G] | 0.38
UAACAGGCGGCCACAGCAGAAGCGUUCACGUCGCAGCCCCUGUCAGAUUCUGGUGAGUCUGCGAAUUCUGCUGUAUAUCUC [G8C A57G] | 0.52
UAACAGGAGGCCACAGCAAAAGCGUUCACGUCGCAGCCCCUGUCAGAUUCUGGUGAAUCUGCGAAUUCUGCUGUAUAUCUC [G8A G19A] | 0.06
UAACAGGCGGCCACAGCAGAGGCGUUCACGUCGCAGCCCCUGUCAGAUUCUGGUGAAUCUGCGAAUUCUGCUGUAUAUCUC [G8C A21G] | 0.06
UAACAGGAGGCCACAGCAGAAGCGUUCACGUCGCAGCCCCUGUCAGAUUCUGGUGAAUCUGCGAAUUCGGCUGUAUAUCUC [G8A U69G] | 0.28
UAACAGGAGGCCACAGCAGAAGCGUUCACGUCGCAGCCCCUGUCAGAUUCUGGUGAAUCUGCGAAUUCAGCUGUAUAUCUC [G8A U69A] | 0.28
UAACAGGAGGCCACAGCAGAAGCGUUCACGUCGCAGCCCCUGUCAGAUUCUGGUGAAUCUGCGAAUUCCGCUGUAUAUCUC [G8A U69C] | 0.19
UAACAGGCGGCCACCGCAGAAGCGUUCACGUCGCAGCCCCUGUCAGAUUCUGGUGAAUCUGCGAAUUCUGCUGUAUAUCUC [G8C A15C] | 0.29
UAACAGGAGGCCACAGCAGAAGCGUUCACGUCGCAGCCCCUGUCAGAUUCUGGCGAAUCUGCGAAUUCUGCUGUAUAUCUC [G8A U54C] | 0.14
UAACAGGAGGCCACAGCAGAAGCGUUCACGUCGCAGCCCCUGUCAGAUUCUGGAGAAUCUGCGAAUUCUGCUGUAUAUCUC [G8A U54A] | 0.08
UAACAGGAGGCCACAGCAGAAGCGUUCACGUCGCAGCCCCAGUCAGAUUCUGGUGAAUCUGCGAAUUCUGCUGUAUAUCUC [G8A U41A] | 0.07
UAACAGGAGGCCACAGCAGAAGCGUUCACGUCGCAGCCCCCGUCAGAUUCUGGUGAAUCUGCGAAUUCUGCUGUAUAUCUC [G8A U41C] | 0.32
